PMC11109196 (Nature Communications, 2024)

Columns and labels:
MW959 gp120 = biological target: T1, MW959 gp120 (HIV-1 subtype C, 93MW959 (isolate 959 …, strain)); test: flow cytometry on cells; blocking format: HmAb64 added to biotinylated gp120 in the staining of primary human CD4+ T cells; loss of gp120 staining read out (2, 4, 8 ug HmAb64 with 2 ug ADA gp120 in panel b); details: both partners purified
T1 construct: also called MW959 (C)

AD8 gp120 = biological target: T2, AD8 gp120 (HIV-1 subtype B, AD8, UniProt O40222, strain); test: as above; details: both partners purified
T2 construct: also called AD8 (B)

SF162 gp120 = biological target: T3, SF162 gp120 (HIV-1 (SF162), UniProt P19550); test: as above; details: both partners purified
T3 construct: also called SF162 (B)

CM244 gp120 = biological target: T4, CM244 gp120 (HIV-1 isolate CM244 (CRF01_AE; printed …, UniProt Q4QX31, strain); test: as above; details: both partners purified
T4 construct: also called CM244 (AE); CM224

[1] = biological target: T5, wild-type gp120 Env protein, HIV-1 isolate JR-FL (HIV-1 isolate JR-FL, UniProt Q75760, strain); test: ELISA; HmAb64 on gp120, gp120-Core or their D368R mutant protein, as previously described; details: both partners purified
T5 construct: also called JR-FL gp120

[2] = biological target: gp120 Czm (clade C, 96ZM652) (HIV-1 subtype C, named 96ZM652; entry …, strain); test: as above; details: both partners purified
[3] = biological target: gp120 A2 (clade A, 92UG037.8) (HIV-1 isolate 92UG037.8 (clade A), UniProt Q70200, strain); test: as above; details: both partners purified
[4] = biological target: T6, wild-type gp120 Env protein, HIV-1 isolate YU2 (HIV-1 isolate YU2, UniProt P35961); test: as above; details: both partners purified
T6 construct: also called YU2 gp120

A244 gp120 = A244 gp120 (HIV-1 isolate A244); test: SPR; Biacore 3000, CM4 or CM5 chip; gp120 or BG505-SOSIP immobilised by amine coupling to about 750 RU; HBS pH 7.4, 3 mM EDTA, 0.005% Tween-20, 0.05% carboxymethyl-dextran; 25 ul/min, 25 C; details: both partners purified
[5] = biological target: biotinylated gp120 of HIV-1 SF162 (HIV-1 isolate SF162, UniProt P19550, strain); test: flow cytometry on cells; HmAb64 added to biotinylated gp120 and read by the loss of gp120 staining of primary CD4+ T cells; details: both partners purified
[6] = biological target: T7, biotinylated gp120 of HIV-1 CM244 (HIV-1 isolate CM244 (CRF01_AE; printed …, UniProt Q4QX31, strain); test: as above; details: both partners purified
T7 construct: also called CM224 (as printed in the methods)

[7] = biological target: T8, HIV-1 SF162 Env on infected human CD4+ T cells (HIV-1 isolate SF162, UniProt P19550, strain); test: flow cytometry on cells; primary human CD4+ T cells infected with HIV SF162 for 3 days, stained with HmAb64 (2 ug), goat anti-human-PE; details: one partner purified
T8 construct: also called HIV-1 SF162 infected CD4+ T cells; source: primary human CD4+ T cells infected with HIV SF162, on the cell surface

Measured: binding result

B1: HmAb64 (antibody, V domains shown)
VH: QVQLVQSGAEVKKPGASVKVSCKASGYTFTSYDITWVRQAPGQGLEWMGWISAYNGDTNYAQRLQGRVTMTTDTSTSTAYMELRSLRSDDTAVYYCARAKHTVLVTAMRWFDPWGQGTLVTVSS
VL: DIQMTQSPSSLSASVGDRVTITCRASQSISNYLNWYQQKPGKAPKLLISATSSLQSGVPSRFSGSGSGTDFTLTISSLQPDDFATYYCQQSYSTPWTFGQGTKLEIK
notes: also called HmAb64 mAb; source: Freestyle 293F cells, transfected, purified (Protein A HP columns)
binds: MW959 gp120 | AD8 gp120 | SF162 gp120 | CM244 gp120

B2: HmAb64 (antibody, V domains shown)
VH: QVQLVQSGAEVKKPGASVKVSCKASGYTFTSYDITWVRQAPGQGLEWMGWISAYNGDTNYAQRLQGRVTMTTDTSTSTAYMELRSLRSDDTAVYYCARAKHTVLVTAMRWFDPWGQGTLVTVSS
VL: DIQMTQSPSSLSASVGDRVTITCRASQSISNYLNWYQQKPGKAPKLLISATSSLQSGVPSRFSGSGSGTDFTLTISSLQPDDFATYYCQQSYSTPWTFGQGTKLEIK
notes: also called human IgG (HmAb64); clone #64; source: Freestyle 293F cells, transfected (mAb64-HC/pJW4303 and mAb64-KC/pJW4303), purified from supernatant (Protein A)
not listed: MW959 gp120 | AD8 gp120 | SF162 gp120 | CM244 gp120
binds: all other assays above
